Assay results as given in paper PMC9832913.

Target: human A2A adenosine receptor (A2AAR), residues 1-316, N154Q (human) (UniProt P29274)
Experiment: SEC

Sequence of UniProt P29274 (P29274 1-316 N154Q): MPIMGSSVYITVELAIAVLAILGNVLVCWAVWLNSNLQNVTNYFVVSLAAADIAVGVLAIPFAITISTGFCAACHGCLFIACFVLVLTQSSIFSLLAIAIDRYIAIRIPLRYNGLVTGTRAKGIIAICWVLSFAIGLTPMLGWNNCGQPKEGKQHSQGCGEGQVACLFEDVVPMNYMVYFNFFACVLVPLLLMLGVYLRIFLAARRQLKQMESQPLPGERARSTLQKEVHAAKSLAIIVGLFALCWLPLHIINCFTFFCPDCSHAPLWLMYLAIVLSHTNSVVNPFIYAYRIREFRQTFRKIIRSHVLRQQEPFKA

Substance: mini-Gs, an engineered variant of the Gs protein α-subunit
- percent of the receptor in complex: 95%
